# B1: AC8FabTAT (Fab, V domains shown)
# VH: QVQLVQSGAEVKKPGSSVKVSCKASGGSFSSYAINWVRQAPGQGLEWMGGLMPIFGTTNYAQKFQDRLTITADVSTSTAYMQLSGLTYEDTAMYYCARVAYMLEPTVTAGGLDVWGQGTTVTVAS
# VL: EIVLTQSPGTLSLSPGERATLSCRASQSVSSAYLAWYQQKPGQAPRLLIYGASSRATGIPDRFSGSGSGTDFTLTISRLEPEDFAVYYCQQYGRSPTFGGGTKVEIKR
# B2: AC8 Fab (Fab, V domains shown)
# VH: B1 VH
# VL: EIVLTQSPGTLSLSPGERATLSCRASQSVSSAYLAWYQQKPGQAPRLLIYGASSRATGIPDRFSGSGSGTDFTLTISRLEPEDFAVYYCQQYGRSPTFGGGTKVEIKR
# Assays:
# Assay in all cases: cell-based or functional assay
# [1] = biological target: T1, glycoprotein D of Herpes simplex virus, on HSV-1 virus (Herpes simplex virus (HSV-1 virus in …, UniProt A1Z0Q5 26-394))
# [2] = biological target: T1, glycoprotein D of Herpes simplex virus, …; remark: listed apart in the source
# [3] = biological target: T1, glycoprotein D of Herpes simplex virus, …; remark: listed apart in the source
Binder,"ED50 against HSV-1 infection; virus prevention assay (cells pre-treated with antibody, washed, then HSV-1) [1]",Plaque Reduction Rate Percentage (Average plaque number per plate) at 0.012 µg/ml; HSV-1 neutralization in solution [2],Plaque Reduction Rate Percentage (Average plaque number per plate) at 0.037 µg/ml; HSV-1 neutralization in solution [2],Plaque Reduction Rate Percentage (Average plaque number per plate) at 0.11 µg/ml; HSV-1 neutralization in solution [2],Plaque Reduction Rate Percentage (Average plaque number per plate) at 0.33 µg/ml; HSV-1 neutralization in solution [2],Plaque Reduction Rate Percentage (Average plaque number per plate) at 1 µg/ml; HSV-1 neutralization in solution [2],Plaque Reduction Rate Percentage (Average plaque number per plate) at 3 µg/ml; HSV-1 neutralization in solution [2],"Plaque Reduction Rate Percentage (Average plaque number per plate) at 0.2 µg/ml; virus prevention assay (cells pre-treated with antibody, washed, then HSV-1) [3]","Plaque Reduction Rate Percentage (Average plaque number per plate) at 0.6 µg/ml; virus prevention assay (cells pre-treated with antibody, washed, then HSV-1) [3]","Plaque Reduction Rate Percentage (Average plaque number per plate) at 1.9 µg/ml; virus prevention assay (cells pre-treated with antibody, washed, then HSV-1) [3]","Plaque Reduction Rate Percentage (Average plaque number per plate) at 5.6 µg/ml; virus prevention assay (cells pre-treated with antibody, washed, then HSV-1) [3]","Plaque Reduction Rate Percentage (Average plaque number per plate) at 16.7 µg/ml; virus prevention assay (cells pre-treated with antibody, washed, then HSV-1) [3]","Plaque Reduction Rate Percentage (Average plaque number per plate) at 50 µg/ml; virus prevention assay (cells pre-treated with antibody, washed, then HSV-1) [3]","ED50; plaque reduction assay, HSV-1 neutralization in solution [1]"
B1,27 µg/mL,0%,14%,33%,77%,100%,100%,0%,0%,0%,13%,37%,68%,–
B2,–,–,–,–,–,–,–,–,–,–,–,–,–,~0.2 µg/mL

# From US20110033389A1 (published 2011)
